{
  "source": "patent US12180485B2",
  "about": "“Repressible control of gene expression” (TRUSTEES OF BOSTON UNIVERSITY, priority 2020, dated 2024)",
  "origin": "cited, not measured here",
  "molecules": {"B1": {"name": "aCaffVHH: VHH camelid antibody that specifically binds to caffeine, SEQ ID NO: 1980 (protein)", "VHH": "EVQLQASGGGLVQAGGSLRLSCTASGRTGTIYSMAWFRQAPGKEREFLATVGWSSGITYYMDSVKGRFTISRDNAKNSAYLQMNSLKPEDTAVYYCTATRAYSVGYDYWGQGTQVTVSH"}, "B2": {"name": "DNCR2: danoprevir/NS3 complex reader, SEQ ID NO: 163 (protein)", "chain": "SSDEEEARELIERAKEAAERAQEAAERTGDPRVRELARELKRLAQEAAEEVKRDPSSSDVNEALKLIVEAIEAAVDALEAAERTGDPEVRELARELVRLAVEAAEEVQRNPSSSDVNEALHSIVYAIEAAIFALEAAERTGDPEVRELARELVRLAVEAAEEVQRNPSSRNVEHALMRIVLAIYLAEENLREAEESGDPEKREKARERVREAVERAEEVQRDPSGWLNH"}, "B3": {"name": "LwaCas13b: Leptotrichia wadei Cas13a, SEQ ID NO: 2 (protein, listed as Leptotrichia wadei)", "chain": "MKVTKVDGISHKKYIEEGKLVKSTSEENRTSERLSELLSIRLDIYIKNPDNASEEENRIRRENLKKFFSNKVLHLKDSVLYLKNRKEKNAVQDKNYSEEDISEYDLKNKNSFSVLKKILLNEDVNSEELEIFRKDVEAKLNKINSLKYSFEENKANYQKINENNVEKVGGKSKRNIIYDYYRESAKRNDYINNVQEAFDKLYKKEDIEKLFFLIENSKKHEKYKIREYYHKIIGRKNDKENFAKIIYEEIQNVNNIKELIEKIPDMSELKKSQVFYKYYLDKEELNDKNIKYAFCHFVEIEMSQLLKNYVYKRLSNISNDKIKRIFEYQNLKKLIENKLLNKLDTYVRNCGKYNYYLQVGEIATSDFIARNRQNEAFLRNIIGVSSVAYFSLRNILETENENGITGRMRGKTVKNNKGEEKYVSGEVDKIYNENKQNEVKENLKMFYSYDFNMDNKNEIEDFFANIDEAISSIRHGIVHFNLELEGKDIFAFKNIAPSEISKKMFQNEINEKKLKLKIFKQLNSANVFNYYEKDVIIKYLKNTKFNFVNKNIPFVPSFTKLYNKIEDLRNTLKFFWSVPKDKEEKDAQIYLLKNIYYGEFLNKFVKNSKVFFKITNEVIKINKQRNQKTGHYKYQKFENIEKTVPVEYLAIIQSREMINNQDKEEKNTYIDFIQQIFLKGFIDYLNKNNLKYIESNNNNDNNDIFSKIKIKKDNKEKYDKILKNYEKHNRNKEIPHEINEFVREIKLGKILKYTENLNMFYLILKLLNHKELTNLKGSLEKYQSANKEETFSDELELINLLNLDNNRVTEDFELEANEIGKFLDFNENKIKDRKELKKFDTNKIYFDGENIIKHRAFYNIKKYGMLNLLEKIADKAKYKISLKELKEYSNKKNEIEKNYTMQQNLHRKYARPKKDEKFNDEDYKEYEKAIGNIQKYTHLKNKVEFNELNLLQGLLLKILHRLVGYTSIWERDLRFRLKGEFPENHYIEEIFNFDNSKNVKYKSGQIVEKYINFYKELYKDNVEKRSIYSDKKVKKLKQEKKDLYIRNYIAHFNYIPHAEISLLEVLENLRKLLSYDRKLKNAIMKSIVDILKEYGFVATFKIGADKKIEIQTLESEKIVHLKNLKKKKLMTDRNSEELCELVKVMFEYKALE"}},
  "key": {"NS3a-genotype 1b": {"biological_target": "NS3a-genotype 1b (Hepatitis C virus genotype 1b, UniProt P26663, A1092G/F1173S/K1113A/P1112Q)", "conditions": "disrupted by NS3a-targeting drugs; read-out: affinity of basal complex with NS3a-genotype 1b; cited from earlier work"}, "[1]": {"conditions": "read-out: affinity (Kd); cited from earlier work"}, "NS3a/danoprevir complex": {"biological_target": "NS3a/danoprevir complex (Hepatitis C virus genotype 1a, UniProt P27958, T1100M/T1173A)", "conditions": "cited from earlier work"}, "apo NS3a": {"biological_target": "apo NS3a (Hepatitis C virus genotype 1a, UniProt P27958, T1100M/T1173A)", "conditions": "cited from earlier work"}, "[2]": {"tested_on": "luciferase and endogenous transcripts", "conditions": "cited from earlier work"}},
  "data": [
    {"molecule": "GELDELVYLLDGPGYDPIHSD [ANR]", "values": [
      {"measurement": "Kd", "setting": "NS3a-genotype 1b", "value": 10, "unit": "nM"}
    ]},
    {"molecule": "B1", "values": [
      {"measurement": "Kd", "setting": "[1]", "value": 500, "unit": "nM"}
    ]},
    {"molecule": "B2", "values": [
      {"measurement": "selectivity over NS3a bound to the drugs grazoprevir or asunaprevir", "setting": "NS3a/danoprevir complex", "value": "> 20,000 fold"},
      {"measurement": "binding to free danoprevir", "setting": "NS3a/danoprevir complex; free danoprevir, no NS3a", "value": "does not bind substantially"},
      {"measurement": "Kd", "setting": "NS3a/danoprevir complex; read-out: affinity for the NS3a/danoprevir complex", "value": 0.036, "unit": "nM"},
      {"measurement": "binding to apo NS3a", "setting": "apo NS3a", "value": "no detectable binding"}
    ]},
    {"molecule": "B3", "values": [
      {"measurement": "knockdown efficiency", "setting": "[2]", "value": 50, "unit": "%"}
    ]}
  ]
}
